Data: patent US20260103532A1 (published 2026)

Molecular target: CD40 (UniProt P25942 21-193, limits assumed)
Assay: not stated (affinity given in the study drug description; no method)

CD40, sequence (P25942 21-193 limits assumed): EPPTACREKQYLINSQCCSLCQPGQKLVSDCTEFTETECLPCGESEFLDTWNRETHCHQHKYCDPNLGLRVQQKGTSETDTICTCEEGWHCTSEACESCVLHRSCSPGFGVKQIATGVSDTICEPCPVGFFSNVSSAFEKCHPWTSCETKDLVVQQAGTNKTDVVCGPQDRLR

B1: KPL-404 (antibody, human IgG4 S228P, kappa, V domains shown)
VH: QVQLVQSGAEVKKPGASVKVSCKASGYTFTNYWMHWVRQAPGQRLEWIGYINPSNDYTKYNQKFKDRATLTADKSANTAYMELSSLRSEDTAVYYCARQGFPYWGQGTLVTVSS
VL: EIVLTQSPATLSLSPGERATLSCSASSSVSYMHWYQQKPGQAPRRWIYDTSKLASGVPARFSGSGSGTDYTLTISSLEPEDFAVYYCHQLSSDPFTFGGGTKVEIKR
notes: also called humanized anti-CD40 antibody; KPL-404 drug product
**Q.** How did the Kd turn out when B1 was run?
**A.** The Kd was 7.2 nM.
